From JP2012100585A (dated 2012)

B1: マウス抗LOX−1モノクローナル抗体#10−1 (antibody, V domains shown)
VH: EVKLLESGGGLVQPGGSLKLSCAVSGFDFSRYWMSWVRQAPGKGLEWIGEINPDSSTINFTPSLKDKFIVSRDNAKNTLYLQMSKVRSEDTALYYCARNDVLLGAMDYWGQGTSVTVSS
VL: DVLMTQTPLSLPVSLGDQASISCRSSQTIVHSNGKTYLEWYLQKPGQSPKLLIYKVSNRFSGVPDRFSGSGSGTDFTLKISRVEAEDLGVYYCFQGSHVPLTFGAGTKLELK
notes: also called 抗LOX−1抗体#10−1; マウス抗LOX−1抗体#10−1のIgG型
B2: Fv型抗LOX−1抗体−ApoB断片融合タンパク質 Fv−B2 (other)
chain: EVKLLESGGGLVQPGGSLKLSCAVSGFDFSRYWMSWVRQAPGKGLEWIGEINPDSSTINFTPSLKDKFIVSRDNAKNTLYLQMSKVRSEDTALYYCARNDVLLGAMDYWGQGTSVTVSSGGGGSGGGGSGGGGSDVLMTQTPLSLPVSLGDQASISCRSSQTIVHSNGKTYLEWYLQKPGQSPKLLIYKVSNRFSGVPDRFSGSGSGTDFTLKISRVEAEDLGVYYCFQGSHVPLTFGAGTKLELKREIFNMARDQRSRATLYALSHAVNNYHKTNPTGTQELLDIANYLMEQIQDDCTGDEDYTYLILRVIGNMGQTMEQLTPELKSSILKCVQSTKPSLMIQKAAIQALRKMEPKDKDQEVLLQTFLDDASPGDKRLAAYLMLMRSPSQADINKIVQILPWEQNEQVKNFVASH
notes: Fusion of scFv (C-terminus) to ApoB fragment (N-terminus) through a linker; FreeStyle 293, His-tag purified; not shown: C-terminal V5 and 6xHis tag from the pEF6/V5/His vector
B3: Fv型抗LOX−1抗体−ApoB断片融合タンパク質 Fv−B4 (other)
chain: EVKLLESGGGLVQPGGSLKLSCAVSGFDFSRYWMSWVRQAPGKGLEWIGEINPDSSTINFTPSLKDKFIVSRDNAKNTLYLQMSKVRSEDTALYYCARNDVLLGAMDYWGQGTSVTVSSGGGGSGGGGSGGGGSDVLMTQTPLSLPVSLGDQASISCRSSQTIVHSNGKTYLEWYLQKPGQSPKLLIYKVSNRFSGVPDRFSGSGSGTDFTLKISRVEAEDLGVYYCFQGSHVPLTFGAGTKLELKGPQMSASVHLDSKKKQHLFVKEVKIDGQFRVSSFYAKGTYGLSCQRDPNTGRLNGESNLRFNSSYLQGTNQITGRYEDGTLSLTSTSDLQS
notes: as for B2
B4: Fv型抗LOX−1抗体 (scFv)
scFv: EVKLLESGGGLVQPGGSLKLSCAVSGFDFSRYWMSWVRQAPGKGLEWIGEINPDSSTINFTPSLKDKFIVSRDNAKNTLYLQMSKVRSEDTALYYCARNDVLLGAMDYWGQGTSVTVSSGGGGSGGGGSGGGGSDVLMTQTPLSLPVSLGDQASISCRSSQTIVHSNGKTYLEWYLQKPGQSPKLLIYKVSNRFSGVPDRFSGSGSGTDFTLKISRVEAEDLGVYYCFQGSHVPLTFGAGTKLELK
notes: VH gene was amplified with the #10-1 heavy chain secretion signal; Expressed in FreeStyle 293, purified by His tag; also called Fv型抗体; Fv; not shown: C-terminal V5 and 6xHis tag from the pEF6/V5/His vector
B5: Fv型抗LOX−1抗体−ApoB断片融合タンパク質 Fv−B1 (other)
chain: EVKLLESGGGLVQPGGSLKLSCAVSGFDFSRYWMSWVRQAPGKGLEWIGEINPDSSTINFTPSLKDKFIVSRDNAKNTLYLQMSKVRSEDTALYYCARNDVLLGAMDYWGQGTSVTVSSGGGGSGGGGSGGGGSDVLMTQTPLSLPVSLGDQASISCRSSQTIVHSNGKTYLEWYLQKPGQSPKLLIYKVSNRFSGVPDRFSGSGSGTDFTLKISRVEAEDLGVYYCFQGSHVPLTFGAGTKLELKEEEMLENVSLVCPKDATRFKHLRKYTYNYEAESSSGVPGTADSRSATRINCKVELEVPQLCSFILKTSQCTLKEVYGFNPEGKALLKKTKNSEEFAAAMSRYELKLAIPEGKQVFLYPEKDEPTYILNIKRGIISALLVPPETEEAKQVLFLDTVYGNCSTHFTVKTRKGNVATEISTERDLGQCDRFKP
notes: as for B2
B6: Fv型抗LOX−1抗体−ApoB断片融合タンパク質 Fv−B3 (other)
chain: EVKLLESGGGLVQPGGSLKLSCAVSGFDFSRYWMSWVRQAPGKGLEWIGEINPDSSTINFTPSLKDKFIVSRDNAKNTLYLQMSKVRSEDTALYYCARNDVLLGAMDYWGQGTSVTVSSGGGGSGGGGSGGGGSDVLMTQTPLSLPVSLGDQASISCRSSQTIVHSNGKTYLEWYLQKPGQSPKLLIYKVSNRFSGVPDRFSGSGSGTDFTLKISRVEAEDLGVYYCFQGSHVPLTFGAGTKLELKTSGAYSNASSTDSASYYPLTGDTRLELELRPTGEIEQYSVSATYELQREDRALVDTLKFVTQAEGAKQTEATMTFKYNRQSMTLSSE
notes: as for B2

Legend:
[1] = target: T1, 組換えヒトLOX−1タンパク質(61−273aa) (human, UniProt P78380 61-273); test: ELISA, LOX-1 (61-273) on the plate, HRP anti-mouse IgG detection
[2] = target: T2, BSA (UniProt P02769 25-607); test: ELISA, BSA on the plate
T2 construct: Negative control antigen; also called BSA(陰性対照、シグマ社)
T2 sequence (P02769 25-607 limits assumed): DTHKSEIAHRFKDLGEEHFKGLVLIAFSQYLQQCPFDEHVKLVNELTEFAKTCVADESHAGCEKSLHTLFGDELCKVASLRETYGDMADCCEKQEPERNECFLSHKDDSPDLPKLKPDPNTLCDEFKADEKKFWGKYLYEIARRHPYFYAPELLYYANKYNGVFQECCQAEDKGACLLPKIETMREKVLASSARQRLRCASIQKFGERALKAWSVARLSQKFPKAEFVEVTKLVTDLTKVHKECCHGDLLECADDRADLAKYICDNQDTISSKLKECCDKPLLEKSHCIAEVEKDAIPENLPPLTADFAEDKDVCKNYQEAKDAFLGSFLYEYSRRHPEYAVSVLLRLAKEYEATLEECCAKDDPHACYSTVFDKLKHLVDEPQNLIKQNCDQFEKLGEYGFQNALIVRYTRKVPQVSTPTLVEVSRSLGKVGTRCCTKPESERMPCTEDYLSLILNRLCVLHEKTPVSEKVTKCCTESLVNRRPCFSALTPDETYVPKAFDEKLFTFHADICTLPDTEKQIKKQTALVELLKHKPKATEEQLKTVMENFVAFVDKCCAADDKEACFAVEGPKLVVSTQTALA

[3] = target: T1, 組換えヒトLOX−1タンパク質(61−273aa); test: ELISA on LOX-1 (61-273), anti-V5 detection; 4-parameter logistic fit
[4] = target: T2, BSA; test: ELISA, BSA on the plate, anti-V5 detection

Binder | binding result [1] | binding result [2] | fold higher inflection-point concentration against Fv型抗体 [3] | binding result [4]
B1 | binds | no binding (tested: 抗体濃度2ng/mL〜100μg/mL) | – | –
B2 | – | – | ~27 倍 | no binding (tested: 1.6ng/mL〜100μg/mL)
B3 | – | – | ~7 倍 | no binding (tested: 1.6ng/mL〜100μg/mL)
B4 | – | – | – | no binding (tested: 抗体濃度2ng/mL〜100μg/mL)
B5 | – | – | – | no binding (tested: 1.6ng/mL〜100μg/mL)
B6 | – | – | – | no binding (tested: 1.6ng/mL〜100μg/mL)
